First the molecules themselves.
B1: TPR t1 (parent)
chain: GACCAAUCUGCCCUCAGAGCUCGAGAACAUCUUCGGAUGCAGAGGAGGCAGGCUUCGGUGGCGCGAUAGCGCCAACGUCCUCAACCUCCAAUGCAUCCCACCACAUGAUGAUGCCUGAAGAGCCUUGGUUUUUUG

In the data set the parent is B1. The data set is described as follows: polymerase ribozyme fitness, log enrichment relative to wild type (log ratio); higher = more active; in vitro selection for triplet polymerase activity. An outline of the steps:
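Mutant libraries of each subunit of a heterodimeric triplet polymerase ribozyme were built by PCR and transcribed. Each library went through one round of in vitro selection in triplicate: annealing with biotinylated primer, partner subunit and triplets, frozen incubation at −7 °C, gel excision of extended constructs, streptavidin-bead capture and RT-PCR. Input and output libraries were Illumina-sequenced; only genotypes with ≥10 input reads and ≥1 read per output were kept. Fitness is log2(genotype enrichment/wild-type enrichment), using inverse-variance-weighted replicate averages.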
Take GACCAAUCUGCCCUCAGAGCUCGAGAACAUCUUCGGAUGCAGAUGAGUCAGGCUUCCGUGGCGCGAUAGCGCCAACGUCCUCAACCUCCAAUGCAUCCCACCAAAUGAUGAUGCCUGAAGAGCCUUGGUUUUUUG: the “polymerase ribozyme fitness (log ratio)” value was -3.32.
On to GACCAAUCUGCCCUCAGAGCUCGAGAACAUCUUCGGAUGCAGAUGAGGCAGGCUUCGGUGGCGCAAUAGCGCCAACGUCCUCAACCUCCAAUGCAUCCCACCACAUGAUGAUGCCUGAAGAGCCUUGGUUUUUUG, for which the “polymerase ribozyme fitness (log ratio)” value is -6.04.
For GACCAAUCUGCCCUCAGAGCUCGAGAACAUCUUCGGAUGCAGAUGAGGCAGGCUUCGGUGGCGCGAUACCGCCAACGUCCUCAACCUCCAAUGCAUCCCACCACAUGAUGAUGCCUGAAGAGCCUUGGUUUUUUG, the “polymerase ribozyme fitness (log ratio)” value was -0.825.
In the case of GACCAAUCUGCCCUCAGAGCUCGAGAACAUCUUCGGAUGCAGAUGAAGCAGGCUUCGGUGGCCCGAUAGCGCCAACGUCCUCAACCUCCAAUGCAUCCCACCACAUGAUGAUGCCUGAAUAGCCUUGGUGUUUUG it was -4.01.
As for GACCAAUCUGCCCUCAGAGCUCGAGAACAUCUUCGGAUGCAGAUGAGGCAGGCUUCGCUGGCGCGAUAGCGCCAACGUCCUCAACCUCCAAUGCAUCCCACCACAUGAUGAUGCCUGAAGAGCCUUGGUUUUUUG, the figure is -0.197; as for GACCAAUCUGCCCUCAGAGCUCGAGAACAUCUUCGGAUGCAGAUGAGGCAGGAUUCGGUGGCGCGAUACCGCCAACGUCCUCAACCUCCAAUGCAUCCCACCACUUGAUGAUGCCUGAAGAGCCUUGGUUUUUUG, -5.22; as for GACCAAUCUGCCCUCAGAGCUCGAGAACAUCUUCGGAUGCAGAUGAUGCAGGCUCCGGUGGCGCGAUAGCGCCAACGUCCUCAACCUCCAAUGCAUCCCACCACAUGAUGAUGCCUGAAGAGCCUUGGUUUUUUG, -2.82.
In the case of GACCAAUCUGCCCUCAGAGCUCGAGAACAUCUUCGGAUGCAGAUGAGGCAGGCUUCGGUGGCGCGAUAGCGCCAACGUCCUCAACCUCCAAUGCAUCCCACCACAUGAUGAUGACGGAAGAGCCUUGGUUUUUUG it was -4.56; in that of GACCAAUCUGCCCUCAGAGCUCGAGAACAUCUUCGGAUGCAGAUGAGGCAGGCUUCGGUGGUCCGAUAGCGCCAACGUCCUCAACCUCCAAUGCAUCCCACCACAUGAUGAUGCCUGAAGAGCCUUGGUUUUUUG, -2.59.
As for GACCAAUCUGCCCUCAGAGCUCGAGAACAUCUUCGGAUGCAGAUGAGGCAGGCUUCGGUGGCGCGAUAGCGCCAACGUCCUUAACCUCCAAUGCAUCCCACCACAGGAUGAUGCCUGAAAAGCCUUGGUUUUUUG, the “polymerase ribozyme fitness (log ratio)” value was -0.344.
In the case of GACCAAUCUGCCCUCAGAGCUCGAGAACAUCUUCGGAUGCAGACGAGGCAGGCUUCGGUGGCGCGAUAGCGCCAACGUCCUCAACCUCCAAUGCAUCCCACCACAUGAUGACGCCUGAAGAGCCUUGGUUUUUUG it was 0.766; in that of GACCAAUCUGCCCUCAGAGCUCGAGAACAUCUUCGGAUGCAGAUGAGGCAGGCUUCGGUGGCGCGAUAGCGCCAACGUCCUCAACCUCCAAUGCAUCCCACCACAUGAUGUUGCCUGAAGAGCCUUGGUUUUUUG, -4.9.
As for GACCAAUCUGCCCUCAGAGCUCGAGAACAUCUUCGGAUGCAGACGAGGCAGGCUACGGUGGCGCGAUAGUGCCAACGUCCUCAACCUGCAAUGCAUCCCACCACAUGAUGAUGCCUCAAGAGCCUUGGUUUUUUG, the figure is -6.75.
For the variant GACCAAUCUGCCCUCAGAGCUCGAGAACAUCUUCGGAUGCAGAUGUGGCAGGCUUCGGUGGCGCGAUAGCGCCAACGUCCUCAACCUCCAAUGCAUCCCACCACAUGAUGACGCCUGAAGAGCCUUGGUUUUUUG, the “polymerase ribozyme fitness (log ratio)” value is -0.701.
Consider GACCAAUCUGCCCUCAGAGCUCGAGAACAUCUUCGGAUGCAGAUGAGGCAGGCUUCGGUGGCGCGAUAGCGUCAACGUCCUCAACCUCCAAUGCAUCCCACCACAUGAUGAUGCCUGAAGUGCCUUGGUUUUUUG, for which the “polymerase ribozyme fitness (log ratio)” value was 0.777.
Consider GACCAAUCUGCCCUCAGAGCUCGAGAACAUCUUCGGAUGCAGAUGAGGCAGGCUUGGGUGUCGCGAUAGCGCCAACGUCCUCAACCUCAAAUGGAUCCCACCACAUGAUGAUGCCUGAAGAACCUUGGUUUUUUG, for which the “polymerase ribozyme fitness (log ratio)” value was -4.78.
In the case of GACCAAUCUGCCCUCAGAGCUCGAGAACAUCUUCGGAUGCAGAUGAGGCAGGCUUCGGUGGCGCGAUAGCGCCAACGUCCUCAACCUCCAAUGCAUCCCACCACAUGAUGAUGCCUGAAGAGCAUUGGUUUUUUG it was 1.15; in that of GACCAAUCUGCCCUCAGAGCUCGAGAACAUCUUCGGAUGCAGAUGAGGCAGGCUUCGGUGGCGCGAUAGCGGCAACGUCCUCAACCUCCAAUGCAUCCCACCACAUGAUGAUGCCUGAACAGCCUUGGUUUUUUG, -0.514.
In the case of GACCAAUCUGCCCUCAGAGCUCGAGAACAUCUUCGGAUGCAGAUGAGGUAGGCUUCGGUGGCGCGAUAGCGCCAACGUCCUCAACCUCCAAUGCACCCCACCACAUGAUGGUGCCUGAAGAGCCUUGGUUUUUUG it was -3.97.
In the case of GACCAAUCUGCCCUCAGAGCUCGAGAACAUCUUCGGAUGCAGACGAGGCAGGCAUCGGUGGCGCGAUAGCGCCAACGUCCUCAACCUCCAAUGCAUCCCACCACGUGAUGAUGCCUUAAGAGCCUUGGAUUUAUG it was -7.26; in that of GACCAAUCUGCCCUCAGAGCUCGAGAACAUCUUCGGAUGCAGAUGAGGCACGCUUCGGUGGCGCGAUAGCGCCAACGUCCUCAACCUCCAAUGCAUCCCACCACAUGAUGAUGCCUGAAGAGCCUUGGUUUUUUG, -5.32.

The values are drawn from the RNAGym collection of RNA variant scans (doi:10.1073/pnas.2313332121).
